Test results taken from patent US20200164026A1, “Intranasal Delivery of Cell Permeant Therapeutics” (The Trustees of Columbia University in the City of New York, priority 2010, published 2020).

Key:
[1] = tested on: Pen1-XBIR3 (Penetratin1 disulfide-linked to the BIR3 domain from XIAP)
[2] = tested on: caspase-cleaved tau (caspase-6 substrate); test: Intranasal Pen1-C6DN prior to 1 hr tMCAo in mice; western blot for caspase-cleaved tau (anti-TauC3); type: in vivo, mouse; details: intranasal 1 hr prior to 1 hr tMCAo, 24 hpr
Excerpt: To determine if a direct blockade of caspase-6 would provide protection from ischemia, a Pen1-linked caspase-6 domininat negative (Pen1-C6DN) construct was utilized. Pen1-C6DN was delivered by intransasal bolus to mice 1 hr prior to tMCAo and mice were then subjected to 1 hrMCAo followed by reperfusion. Animals were sacrificed at 24 hpr and core and penumbra regions of brain prepared for Western blotting. As depicted in FIG. 7, protein lysate from the core and penumbra regions of the stroke infarct (24 hpr) was isolated. Ipsilateral (stroked) hemispheres contained abundant caspase-cleaved tau when only treated with vehicle.
Intranasal Pen1-C6DN Prevents Cleavage of Caspase-6 Substrates. Caspase-6 catalytic dominant negative (C6DN; C285A) was isolated and purified as described previously. Denault, J. B. and G. S. Salvesen, Expression, purification, and characterization of caspases. Curr Protoc Protein Sci, 2003. Chapter 21: p. Unit 21 13. Pen1 (Q-Biogene) was mixed at an equimolar ratio with purified C6DN and incubated overnight at 37° C. to generate disulfide-linked Pen1-C6DN. Linkage was assessed by 20% SDS-PAGE and Western blotting with anti-His and anti-Caspase-6 antibodies.
Male C57BL/6 mice (2-3 months old; ≥25 g) were anesthetized using isoflurane (2%) delivered via an anesthesia mask. […]

[3] = target: T1, Pen1-C6DN (Penetratin1 disulfide-linked to caspase-6 catalytic dominant negative, C285A)
T1 chain 1: RQIKIWFQNRRMKWKK
T1 chain 2: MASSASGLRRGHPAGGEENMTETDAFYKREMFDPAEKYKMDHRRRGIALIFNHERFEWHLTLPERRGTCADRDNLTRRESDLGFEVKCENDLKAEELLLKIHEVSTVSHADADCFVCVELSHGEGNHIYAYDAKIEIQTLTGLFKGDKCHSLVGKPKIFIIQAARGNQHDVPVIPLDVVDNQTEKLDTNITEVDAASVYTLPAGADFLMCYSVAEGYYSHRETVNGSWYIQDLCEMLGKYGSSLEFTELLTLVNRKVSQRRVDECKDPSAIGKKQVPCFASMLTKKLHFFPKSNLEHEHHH

Sequence of Pen1-XBIR3 (Penetratin1 disulfide-linked to the BIR3 domain from XIAP) (chain, as listed by the source): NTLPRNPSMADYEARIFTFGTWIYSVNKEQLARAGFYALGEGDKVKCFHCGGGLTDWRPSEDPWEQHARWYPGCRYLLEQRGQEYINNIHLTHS

**Q.** What does the source list for “caspase-9 (rat, endogenous in brain or hippocampal neurons)”?
**A.** C1-C6 processes (count of cleaved caspase-6 positive processes), intranasal delivery, 12 hpr [1]: Vehicle-12 hpr: 144.0±28.50, n=3 vs. Pen1-XBIR3-12 hpr: 102.7±23.15, n=3; p=0.3233; C1-C6 processes (count of cleaved caspase-6 positive processes), intranasal delivery, 24 hpr [1]: Vehicle-24 hpr: 109.7±12.73, n=3 vs. Pen1-XBIR3-24 hpr: 57.33±10.04, n=3; p=0.032; immunostaining for caspase-9 and cleaved caspase-6 at 24 hpr after convection enhanced delivery to rat striatum [1]: Pent-XBIR3 inhibited appearance of c1-C6 and caspase-9 in cell bodies and processes; immunostaining for cleaved caspase-6 and caspase-9 at 24 hpr (FIG. 3D) [1]: The caspase-9 specific inhibitor, Pen1-XBIR3, blocks the increase in caspase-9 and the induction of c1-C6 observed at 24 hpr

B1: Pen1-C6DN: Caspase-6 catalytic dominant negative (C6DN; C285A) disulfide-linked to Penetratin1 (SEQ ID NO: 11) (conjugate)
peptide: RQIKIWFQNRRMKWKK
chain: T1 chain 2
**Q.** B1 was tested. Which “caspase-cleaved tau in core and penumbra lysate” value [2] did it give?
**A.** reduced cleavage of caspase-cleaved tau

B2: caspase-6 (mouse, endogenous in brain) (protein)
chain: MTETDGFYKSREVFDPAEQYKMDHKRRGVALIFNHERFFWHLTLPERRGTNADRDNLTRRFSDLGFEVKCFNDLRAEELLLKIHEVSTSSHIDADCFICVFLSHGEGNHVYAYDAKIEIQTLTGLFKGDKCQSLVGKPKIFIIQACRGSQHDVPVVPLDMVDHQTDKLDNVTQVDAASVYTLPAGADFLMCYSVAEGYYSHRETVNGSWYIQDLCEMLARYGSSLEFTELLTLVNRKVSQRRVDFCKDPDAIGKKQVPCFASMLTKKLHFCPKPSK
**Q.** Which “caspase-cleaved tau in mouse brain lysate at 24 hpr (western blot, anti-TauC3)” value [3] does the source give for B2 here?
**A.** Pen1-C6DN reduced cleavage of caspase-cleaved tau
